In general, EC50 refers to the concentration needed to bring the measured effect to its halfway point. A high value points to lower potency in that assay. For orientation: Kd means the free concentration of one partner at which half of the binding sites on the other are occupied at equilibrium, for simple one-to-one binding. Low readings indicate tighter binding, high ones weaker binding. One may read the koff as the first-order rate constant of dissociation. As usually defined, the kon is the second-order rate constant of association.

B1: YP218-IgG4 (antibody, from another filing, V domains shown)
VH: QQQLEESGGGLVKPEGSLTLTCKASGFDLGFYFYACWVRQAPGKGLEWIACIYTAGSGSTYYASWAKGRFTISKASSTTVTLQMTSLAAADTATYFCARSTANTRSTYYLNLWGPGTLVTVSS
VL: DVVMTQTPASVSEPVGGTVTIKCQASQRISSYLSWYQQKPGQRPKLLIFGASTLASGVPSRFKGSGSGTEYTLTISDLECADAATYYCQSYAYFDSNNWHAFGGGTEVVVRT
B2: M050 (VHH)
VHH: EVQLQESGGGLVQAGGSLRLSCAASGAVSSINAMGWYRQTPEKVRKLVATMGSGGNTYYADSVKGRFTISRDYAKNTVALQMNNLIPEDTAVYYCAADKFGADIHEVDYWGKGTLVTVSS
B3: M012 (VHH)
VHH: QVQLVESGGDLVQTGGSLRLSCVVSGSTFAINAMGWYRQAPGKERELVAAISSGGDSTHYADDVKGRFTISRDNAENTMYLQMKSLKPEDTAVYVCNARGCRDFHNPQALCVLRDYWGQGTQVTVSS
B4: M156 (VHH)
VHH: QVQLVESGGGLVQAGGSLRLSCAVSGISFEYYAIGWFRQAPGKEREAVSCTTSGTTSGGGVTDYADSLKGRFTISRDVAKNTVYLQMNNLTPEDTAVYYCAADIHCRGYVLFVPSDFGNWGQGTQVTVSS
B5: M047 (VHH)
VHH: QVQLVETGGGSVQAGGSLRLSCAASGSIASIDAMGWYRQVPGKEWERELVATISSSNSDNKYYKDSVKGRFTISTNIAKNTWYLQMNNLKPEDTAMYYCAAEDYDTKDRFWGQGTQVTVSS
B6: M224 (VHH)
VHH: QVQLVESGGGLVQPGGSLRLSCAASGFTFHYYAIGWFRQAPGKEREGVSCISSSGDSTWFSDSVKGRFTVSRDNAKNIVHLQMNNLKPEDTAVYYCAGTTRSGYVCYDAEPYDSWGQGTQVTVSS
B7: M2339 (VHH)
VHH: QLQLGASGGGLVQPGGSLRLSCALSGFTLRELDEFAIGWFRQAPGKEREGVSCISGTGGITHYADSVKGRFTISRDIAKTTVYLQMNSLNSEDTAVYYCAADERCTDRLIRPPTYWGQGTQVTVSS
B8: M118 (VHH)
VHH: EVQLVESGGGLVQAGGSLTLSCAASEHTFTIDAMGYYRQIPGRRNERQLVAAAGRTGTTYYNDAVKDRFTIYRDTSKETIILQMNNLRPEDTTMYYCAVERYSDQSRFFGPGTQVTVSS
B9: M143 (VHH)
VHH: EVQLVESGGGLVQAGGSLRLSCSASEKTFSIKYMGYYRQGPGIERKLVATIDTDGKTWYADSVKGRFTISRENGENEIGLEMNRLKPEDTAMYYCAGETGTYPKPEYWGQGTQVTVSS
B10: M004 (VHH)
VHH: EVQLVESGGGLVQAGGSLRLSCAASESISSIAYMGWYRRISEKERNLVATISSTGSTYYADSVKGRFTISRDNAKNTMYLQMNRLKPEDTAIYYCAASNKAYNDYDPDWGQGTQVTVSS
B11: M044 (VHH)
VHH: QVQVVESGGGFVQAGGSLRLSCAASTPIISIAYMGWYRQISEKERQLVATINSGGKTYYADSVKGRFTISRDNAKNTLYLQMNMLKPEDTGMYYCAASNKDYNDYDPDWGQGTQVTVSS
B12: M137 (VHH)
VHH: QVQLVESGGGLVQAGGSLSLSCAASGSLSSINAMGWYRQLPEMRQLVATMGSDGKTYYADSVKGRFTISRDYAKYTVSLQMNNLRPEDTAIYYCAADRFGAPIHDVDYWGKGTLVTVSV
B13: M191 (VHH)
VHH: QVQLVESGGGLVQAGGSLRLSCAASASMGSISNMGWYRQAPGKERGNERNLVATIGSDGRTYYADSVKGRFTISRDNVKNTMILQMNFLKPEDTAMYYCAVEDRQRPGTENYYWGQGTQVTVSS
B14: M119 (VHH)
VHH: EVQLVESGGGLVQPGGSLRLSCVASGSDLSFDAMGWYRQFSATVRERQLVVATSRDGRIYYGDSVKGRFTASRDNLKNSVDLEMNNLKPEDTAIYYCAAGDDPKNYDWGPGTQVTVSS
B15: M032 (VHH)
VHH: EVQLVESGGGSVQAGGSLKISCAASGSVIDIGAMGWYRHITEKERKLVATINAGGNTYYADSVKGRFTISRDNAKYTVYLQMNSLKPEDTAMYYCAAEDINYTGTEAYYWGQGTQVTVSS
B16: M169 (VHH)
VHH: EVQLVESGGGTVQPGESLRLSCEASGAVSTINAMGWYRQTPEMRKLVATMGSGGNTYYADSVKGRFTISRDFAGNTVDLQMNDLKPEDTGVYFCAADKFGADIKEVAYWGKGTLVTVSS
B17: M010 (VHH)
VHH: QVQLVESGGGLVQAGGSLRLSCAASGSVSSINAMGWYRQGTGEVRKLVATMGSGGNTYYADSVKGRFFITRDYSKNTVSLQMNNLTPEDSATYYCAADRFGASIHEVDYWGKGTLVTVSS
B18: M001 (VHH)
VHH: EVQLVESGGGLVQAGGSLRLSCAASGSIFNINAMGWYRQAPGKEWERELVATISSSNSDNTYYKDSVKGRFTISTNTAKNTWYLQMNSLKPEDTAMYYCAAENYDRKDRYWGQGTQVTVSS
B19: M003 (VHH)
VHH: QVQLVESGGGLVQAGGSLRLSCTASGNIFSINAMGWYRQPPGKEWERELVATISSTNSDNTYYKESVKGRFTISTNTAKNTWYLQMNSLKPEDTAMYYCAAENFDRKDRYWAQGTQVTVSS
B20: M129 (VHH)
VHH: QVQLVESGGGSAQAGGSLILSCVASANLFTIDALGWYRQAPGPKRELVAAISSGGNKYYADAVKGRFTISRDTLTKTMWLQMNNLKPEDTAMYYCAAEDYGLGQRSWGMGTQVTVSS
B21: M344 (VHH)
VHH: QVQLVESGGGLVQSGGSLRLSCVASGSAFSFDAMGWYRQFSATRRERQLVVATSRDGRTYYADSVKGRFTATRDNSKNSLYLEMNSLKPEDTAIYYCAAGDDPKNYSWGQGTQVTVSS
B22: M132 (VHH)
VHH: QVQLVESGGGLVQAGGSLSLSCVASGDAFSFDAMGWYRQFSGKVNERQLVVATSRDGRTAYGERVKGRFTASRDNSKNTLSLVMNNLQVEDTAIYYCAAGDDPKDYYWGQGTQVTVSS
B23: M197 (VHH)
VHH: EVQLVESGGGLVQAGGSLRLSCAASGSHFGLNVVGWYRQAPGKQRELVASIGNSGRTTDYADSVKGRFTISKDNAQNTIYLQMNNLKPEDTAMYRCHLRVSVERGYWGQGTQVTVSS
B24: M005 (VHH)
VHH: EVQLVESGGGWVQSGGSLRLACAASGSSFGLNVVGWYRQAPDKQRELVASIGNGGRTTDYADSVKGRFTISSDNAKNTVFLQMNDLKPEDTAVYYCHLRASVTKGYWGQGTQVTVSS
B25: M126 (VHH)
VHH: EVQLVESGGGWVQSGGSLRLACAASGDSFGLNVVGWYRLAPDKQRELVASIGNGGRTTDYADSVKGRFTISSDNAKNTVFLQMNDLKPEDTAMYYCHLRVSVTEGYWGQGTQVTVSS
B26: M182 (VHH)
VHH: QVQLVESGGGSVQAGGSLTLSCAASGAVSSINAMGWYRQTPEKVRQLVATMGSGGNTYYAASVKGRFTISRDYAKNTVALQMNHLLPEDTAVYYCAADRFGADIREVDYWGKGTQVTVSS
B27: M210 (VHH)
VHH: QVQLVESGGGLVQPGGSLRLSCAASGITLDNYAIAWFRQAPGKKREGVSCISSNGNTYYQPSVKGRFTIARDNAKNTVYLHMNNLNPEDTAVYYCQVGQFSSSTTPVQAMSVMSLYADWGQGTQVTVSS
B28: M2339-z1-1 (antibody, part only; not given: constant region, IgG4, part only)
heavy, part: QLQLGASGGGLVQPGGSLRLSCALSGFTLRELDEFAIGWFRQAPGKEREGVSCISGTGGITHYADSVKGRFTISRDIAKNTVYLQMNSLNSEDTAVYYCAADERCTDRLIRPPTYWGQGTQVTVSS

For the first test, the target named is MSLN on SKOV3 and Aspc-1 tumor cells (UniProt Q13421). The test is described as follows: flow cytometry on Aspc-1 tumor cells, anti-human IgG PE secondary, fitted curve. Background: A flow cytometer gives signals particle by particle.
Chain of MSLN on SKOV3 and Aspc-1 tumor cells (Q13421 other isoform, or with tags, fused parts or gaps limits assumed): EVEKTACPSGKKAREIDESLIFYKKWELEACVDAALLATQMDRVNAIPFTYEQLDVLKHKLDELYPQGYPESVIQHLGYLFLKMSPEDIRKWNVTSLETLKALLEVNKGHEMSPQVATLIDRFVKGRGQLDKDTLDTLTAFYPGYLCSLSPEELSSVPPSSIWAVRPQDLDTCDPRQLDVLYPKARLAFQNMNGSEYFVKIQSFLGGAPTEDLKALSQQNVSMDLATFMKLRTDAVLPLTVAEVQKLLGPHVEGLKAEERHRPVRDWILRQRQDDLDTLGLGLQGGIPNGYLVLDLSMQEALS
Molecule B1 registered an EC50 of 4.24 nM.

Another test deals with Negative control (amino acid sequence shown in SEQ ID NO: 2 in CN106046152A). The test is described as follows: ELISA, negative control well, TG1 supernatant.
In turn, B2 had an ELISA (OD450) of 0.0099 OD450.
Same read-out and setting: the value for B3 was 0.0075 OD450.
With B4, the ELISA (OD450) worked out at 0.0074 OD450.
On the same count and under the same terms, the value for B5 was 0.018 OD450; that for B6 was 0.0074 OD450.
As to B7, the ELISA (OD450) amounted to 0.0479 OD450.
Still for that read-out and setting: the value for B8 was 0.0074 OD450; that for B9 was 0.0085 OD450.
On the same count and under the same terms, the value for B10 was 0.0085 OD450.
Same read-out and setting: the figure for B11 is 0.0083 OD450; for B12 it is 0.0087 OD450; for B13 it is 0.0074 OD450.
Consider B14, for which the ELISA (OD450) came to 0.0071 OD450.
B15 had an ELISA (OD450) of 0.0076 OD450.
The same measure, in the same setting: the figure for B16 is 0.007 OD450; for B17 it is 0.007 OD450; for B18 it is 0.0184 OD450.
Same read-out and setting: the figure for B19 is 0.0104 OD450; for B20 it is 0.007 OD450; for B21 it is 0.0082 OD450.
For the molecule B22, the ELISA (OD450) was 0.007 OD450.
In turn, B23 registered an ELISA (OD450) of 0.0074 OD450.
Consider B24, for which the ELISA (OD450) amounted to 0.0072 OD450.
Regarding B25, the ELISA (OD450) was found to be 0.0068 OD450.
On the same count and under the same terms, the value for B26 was 0.0075 OD450; that for B27 was 0.0071 OD450.

Another test deals with MSLN·His protein (human) (UniProt Q13421). The test is described as follows: SPR (Biacore), antibody captured on protein A, MSLN·His as analyte. (In SPR one partner is held on a chip, and binding of the other changes the refractive index at the surface.)
Chain of MSLN·His protein (human) (Q13421 other isoform, or with tags, fused parts or gaps limits assumed): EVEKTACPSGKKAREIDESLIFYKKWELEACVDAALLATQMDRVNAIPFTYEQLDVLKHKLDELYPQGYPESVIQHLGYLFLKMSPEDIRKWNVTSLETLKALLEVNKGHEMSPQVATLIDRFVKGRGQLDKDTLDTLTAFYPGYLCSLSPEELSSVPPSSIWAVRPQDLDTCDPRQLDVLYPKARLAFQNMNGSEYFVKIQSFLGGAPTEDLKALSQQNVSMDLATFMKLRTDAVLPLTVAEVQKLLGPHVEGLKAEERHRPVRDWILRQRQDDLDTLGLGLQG
B28 showed a Kd of 2270 nM, a koff of 0.000739 s⁻¹ and a kon of 326 M⁻¹ s⁻¹.
The like results for B1 were, in that order, 3.1 nM, 0.000123 s⁻¹ and 40200 M⁻¹ s⁻¹.

The next test concerns the target MSLN on SKOV3 and Aspc-1 tumor cells (UniProt Q13421). In words: flow cytometry on SKOV3 tumor cells, anti-human IgG PE secondary, fitted curve.
With B1, the EC50 amounted to 6.96 nM.

A further test deals with segment III of MSLN expressed on HEK293T cells (UniProt Q13421). In words: flow cytometry on HEK293T cells expressing MSLN segment III, anti-human IgG PE secondary, fitted curve.
Chain of segment III of MSLN expressed on HEK293T cells (Q13421 495-606 limits assumed): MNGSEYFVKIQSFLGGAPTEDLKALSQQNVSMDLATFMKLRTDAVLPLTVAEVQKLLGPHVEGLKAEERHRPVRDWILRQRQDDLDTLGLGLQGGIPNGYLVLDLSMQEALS
B1 gave an EC50 of 2.44 nM.

These data come from patent publication US20240190986A1.
